One assay relates to breast cancer tissues. The assay is described as follows: IHC in a breast cancer cohort (primary tumors, metastases, NAT). The arrangement: species or system human. An excerpt:
FIG. 13. The HCMV US28 expression was studied by immunohistochemistry (IHC) and in situ hybridisation (ISH) in a breast cancer cohort. […] Most tumor cells in this sample stained positively for the US28-13-5G6-1D3 rAb (brown colour). […] C. […] The arrows point out some positive HCMV DNA signals in the figure. […] A colour version of FIG. 13 is provided on the page after the non-colour version.
FIG. 14. […] B. Most cancer cells in the same sample were negative for the MAB810R staining. C. […] The arrows point out such positive HCMV DNA signals. The HCMV DNA was not seen in the cytoplasm of the tumor cells. D. The negative control anti-IgG Ab staining for the same sample was negative. A colour version of FIG. 14 is also provided.
FIG. 15. The US28 staining and HCMV ISH were negative in many normal adjacent tumor (NAT) breast tissues as exemplified in the figure with the sample BR1008b_J6. […] C. […] D. The IgG staining was also negative. […] Thus, the samples are exposed to exactly the same staining conditions and antibody/DNA probe concentrations. […] A colour version of FIG. 15 is also provided.
FIG. 16. A. The IHC staining of the primary breast cancer samples with US28-13-5G6-1D3 rAb were specific and positive in ˜73% of the 41 studied primary breast tumor samples. […]

For assay [1], the target named is T1, US28 of HCMV strain TB40/E on CHO cells (Human cytomegalovirus, UniProt P69332, A8T/D15E/E18L/V24T).
T1 construct: expressed in transfected cells; host or cells: CHO cells
The assay is described as follows: FACS binding to CHO cells expressing TB40/E form of US28. Conditions: FIG. 21C. An excerpt: The plasmids carrying the DNA for the TB40/E, VHL/E, and Merlin constructs and mutated US28 strain (SEQ ID Nos: 254, 272, 273 and 255, respectively) were also manufactured in the similar manner.
Flowcytometry was used to analyze cell surface binding by the US28 antibodies. Upon cell harvest, adherent non-infected and US28 overexpressing or HCMV infected cells were washed three times with cell staining buffer (phosphate-buffered saline (PBS (Amresco, Cleveland, 44139, USA) added 0.5% BSA and 0.05% Sodium Azide (NaN3)). The cells were trypisinized and then resuspended in DMEM with 10% FBS to inhibit the action of trypsin. The cells were then pelleted at 400×g for 10 minutes and washed three times in cell staining buffer. Cell viability and cell concentration were measured by tryphan blue viability assay and a cell counter (Countess, Invitrogen, Carlsbad, CA 92008, USA). The cell suspension was adjusted to 1×10^6 cells/mL with ice-cold cell staining buffer. The cells were blocked in 1 ml 10% FBS or 1% BSA in PBS per 1×10^6 cells, vortexed briefly, and incubated for 10-30 minutes to eliminate non-specific staining. The cells were then stained with the respective antibodies and appropriate negative controls. […]

B1: US28-13-5G6-1D3: monoclonal antibody against ECD3 of HCMV US28; VH SEQ ID NO: 12, VL SEQ ID NO: 18; rAb is the recombinant product (antibody, V domains shown)
VH: EVKLVESGGGLVQPGGSLRLACATSGFTFTDYYMSWVRQPPGKALEWLGFIRSKANGYTTEYSASVKGRFTISRDNSQSILYLQMNTLRSEDSATYYCARDERRTAWLAYWGQGTLVTVSA
VL: DVLMTQTPLSLPVSLGDQASISCRSSQSIVHSNGNTYLDWYLQKPGQSPKLLIYKVSNRFSGVPDRFSGSGSGTDFTLKISRVEAEDLGVYYCFQGSHVPTWTFGGGTKLEIK
modifications: Mature form of VH sequence of 1D3, without the leader sequence; Mature form of VL sequence of 1D3, without the leader sequence
notes: monoclonal antibody against ECD3 of HCMV US28; rAb is the recombinant product
B1: the “staining of TNBC (n=7) and HER2 positive (n=11) metastases” value in the assay on breast cancer tissues (all samples) is “positive”. The “number of negative metastasis samples” value in the assay with breast cancer tissues (hormone receptor positive cancers, of 30 metastases) is 2.

B2: 13-5G6-1D3: mouse monoclonal IgG1 kappa antibody against US28 ECD3; VH SEQ ID NO: 12, VL SEQ ID NO: 18 (antibody, V domains shown)
VH: EVKLVESGGGLVQPGGSLRLACATSGFTFTDYYMSWVRQPPGKALEWLGFIRSKANGYTTEYSASVKGRFTISRDNSQSILYLQMNTLRSEDSATYYCARDERRTAWLAYWGQGTLVTVSA
VL: DVLMTQTPLSLPVSLGDQASISCRSSQSIVHSNGNTYLDWYLQKPGQSPKLLIYKVSNRFSGVPDRFSGSGSGTDFTLKISRVEAEDLGVYYCFQGSHVPTWTFGGGTKLEIK
modifications: Mature form of VH sequence of 1D3, without the leader sequence; Mature form of VL sequence of 1D3, without the leader sequence
In the case of B2, the “% change in absolute levels of binding between DB and TB40/E forms of US28” value in assay [1] is “less than 10%”.

These data come from patent publication US20250296984A1, “THERAPEUTIC AND DIAGNOSTIC AGENTS AND USES THEREOF” (priority 2022, published 2025).
